One substance from IntAct's records for PubMed 14707132 can be followed below.

This assay has as its target pak1_rat Pak1 (UniProt P35465).

Sequence of pak1_rat Pak1 (P35465 whole entry): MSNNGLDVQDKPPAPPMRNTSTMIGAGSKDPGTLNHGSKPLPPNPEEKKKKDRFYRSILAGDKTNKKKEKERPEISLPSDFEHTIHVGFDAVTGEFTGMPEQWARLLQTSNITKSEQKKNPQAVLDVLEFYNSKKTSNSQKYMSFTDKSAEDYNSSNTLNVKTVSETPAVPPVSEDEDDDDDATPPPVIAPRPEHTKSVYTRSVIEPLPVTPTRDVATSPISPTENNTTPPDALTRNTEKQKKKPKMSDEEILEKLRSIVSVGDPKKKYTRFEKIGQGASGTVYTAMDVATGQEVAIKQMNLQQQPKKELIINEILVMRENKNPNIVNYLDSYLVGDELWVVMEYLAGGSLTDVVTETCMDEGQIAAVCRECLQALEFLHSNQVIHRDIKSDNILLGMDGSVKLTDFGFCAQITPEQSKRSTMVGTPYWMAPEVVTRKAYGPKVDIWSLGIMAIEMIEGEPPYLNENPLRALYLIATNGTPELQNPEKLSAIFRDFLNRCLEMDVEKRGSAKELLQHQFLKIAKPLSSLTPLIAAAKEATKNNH
Sequence of Serine/threonine-protein kinase OSR1 (Homo sapiens), O95747 K46A (O95747 whole entry K46A): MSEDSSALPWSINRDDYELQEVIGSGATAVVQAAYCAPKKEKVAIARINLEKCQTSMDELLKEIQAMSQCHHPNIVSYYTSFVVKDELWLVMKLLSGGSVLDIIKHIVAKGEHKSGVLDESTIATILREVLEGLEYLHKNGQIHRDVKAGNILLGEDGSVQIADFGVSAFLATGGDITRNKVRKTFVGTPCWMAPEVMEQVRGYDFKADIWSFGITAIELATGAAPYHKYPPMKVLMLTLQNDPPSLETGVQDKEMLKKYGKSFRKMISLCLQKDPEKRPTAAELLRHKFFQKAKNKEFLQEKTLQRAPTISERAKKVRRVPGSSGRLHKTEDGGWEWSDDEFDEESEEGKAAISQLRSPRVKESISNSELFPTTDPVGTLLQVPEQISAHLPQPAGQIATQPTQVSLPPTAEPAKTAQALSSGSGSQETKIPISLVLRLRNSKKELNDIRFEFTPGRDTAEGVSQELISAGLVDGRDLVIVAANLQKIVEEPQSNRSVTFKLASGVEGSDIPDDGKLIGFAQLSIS

As for “Serine/threonine-protein kinase OSR1 (Homo sapiens), O95747 K46A”, the “effect of a mutation on the interaction” value was “decreasing interaction”.
